Source: US20230250154A1 (CYTONICS, published 2023)
Read-outs that look alike come from different tables or passages of the source.

T1: ADAMTS4 (human, UniProt O75173 213-685, limits assumed)
T1 sequence (looked up): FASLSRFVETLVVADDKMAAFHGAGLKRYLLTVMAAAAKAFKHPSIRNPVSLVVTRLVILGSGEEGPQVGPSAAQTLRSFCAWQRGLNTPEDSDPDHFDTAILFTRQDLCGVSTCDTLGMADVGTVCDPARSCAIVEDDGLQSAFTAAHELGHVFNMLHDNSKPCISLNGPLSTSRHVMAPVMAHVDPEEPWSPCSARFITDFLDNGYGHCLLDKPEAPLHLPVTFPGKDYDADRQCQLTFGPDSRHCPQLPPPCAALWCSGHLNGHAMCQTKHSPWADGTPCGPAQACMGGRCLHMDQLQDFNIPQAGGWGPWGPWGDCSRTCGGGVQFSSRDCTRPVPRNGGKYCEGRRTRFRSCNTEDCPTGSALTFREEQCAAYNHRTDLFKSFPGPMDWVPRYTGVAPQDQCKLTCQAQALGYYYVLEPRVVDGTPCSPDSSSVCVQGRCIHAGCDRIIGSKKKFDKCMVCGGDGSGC

T2: ADAMTS5 (human, UniProt Q9UNA0 262-622, limits assumed)
T2 sequence (looked up): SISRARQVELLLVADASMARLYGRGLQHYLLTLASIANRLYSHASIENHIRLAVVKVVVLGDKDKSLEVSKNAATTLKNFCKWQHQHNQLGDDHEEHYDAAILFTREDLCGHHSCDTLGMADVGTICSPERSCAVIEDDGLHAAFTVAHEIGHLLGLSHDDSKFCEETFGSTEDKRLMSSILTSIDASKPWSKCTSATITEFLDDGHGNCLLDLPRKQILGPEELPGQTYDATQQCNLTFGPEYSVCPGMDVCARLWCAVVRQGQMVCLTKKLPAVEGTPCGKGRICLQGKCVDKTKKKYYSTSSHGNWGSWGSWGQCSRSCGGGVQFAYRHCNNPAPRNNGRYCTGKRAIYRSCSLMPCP

T3: MMP7 (UniProt P09237 95-267, limits assumed)
T3 sequence (looked up): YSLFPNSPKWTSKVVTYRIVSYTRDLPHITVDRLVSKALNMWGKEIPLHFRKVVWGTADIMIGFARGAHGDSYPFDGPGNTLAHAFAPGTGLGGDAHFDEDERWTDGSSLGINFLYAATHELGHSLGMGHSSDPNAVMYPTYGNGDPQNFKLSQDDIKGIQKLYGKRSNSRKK

T4: Cathepsin G (UniProt P08311 21-244)
T4 sequence (looked up): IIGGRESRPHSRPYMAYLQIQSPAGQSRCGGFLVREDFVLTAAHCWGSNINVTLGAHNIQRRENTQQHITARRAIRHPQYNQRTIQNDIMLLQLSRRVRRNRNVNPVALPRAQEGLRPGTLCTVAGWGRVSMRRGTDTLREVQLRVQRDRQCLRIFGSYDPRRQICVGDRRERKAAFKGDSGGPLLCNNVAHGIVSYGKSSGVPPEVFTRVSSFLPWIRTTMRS

T5: MMP2 (human, UniProt P08253 110-660, limits assumed)
T5 sequence (looked up): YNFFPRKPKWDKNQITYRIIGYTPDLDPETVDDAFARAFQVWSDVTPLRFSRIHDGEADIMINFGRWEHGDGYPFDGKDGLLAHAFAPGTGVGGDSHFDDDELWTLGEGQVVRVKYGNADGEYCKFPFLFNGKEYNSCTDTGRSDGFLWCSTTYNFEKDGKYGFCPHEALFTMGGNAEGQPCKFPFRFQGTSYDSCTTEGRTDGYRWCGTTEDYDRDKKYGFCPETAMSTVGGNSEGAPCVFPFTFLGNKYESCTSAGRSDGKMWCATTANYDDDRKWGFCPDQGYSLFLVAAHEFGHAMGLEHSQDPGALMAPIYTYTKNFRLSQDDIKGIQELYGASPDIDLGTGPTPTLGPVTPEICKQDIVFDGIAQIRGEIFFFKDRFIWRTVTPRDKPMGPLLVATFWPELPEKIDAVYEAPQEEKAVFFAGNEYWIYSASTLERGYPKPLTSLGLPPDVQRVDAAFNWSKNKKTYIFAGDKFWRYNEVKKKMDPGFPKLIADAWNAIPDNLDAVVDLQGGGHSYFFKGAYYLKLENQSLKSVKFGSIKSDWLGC

T6: MMP1 (human, UniProt P03956 100-469, limits assumed)
T6 sequence (looked up): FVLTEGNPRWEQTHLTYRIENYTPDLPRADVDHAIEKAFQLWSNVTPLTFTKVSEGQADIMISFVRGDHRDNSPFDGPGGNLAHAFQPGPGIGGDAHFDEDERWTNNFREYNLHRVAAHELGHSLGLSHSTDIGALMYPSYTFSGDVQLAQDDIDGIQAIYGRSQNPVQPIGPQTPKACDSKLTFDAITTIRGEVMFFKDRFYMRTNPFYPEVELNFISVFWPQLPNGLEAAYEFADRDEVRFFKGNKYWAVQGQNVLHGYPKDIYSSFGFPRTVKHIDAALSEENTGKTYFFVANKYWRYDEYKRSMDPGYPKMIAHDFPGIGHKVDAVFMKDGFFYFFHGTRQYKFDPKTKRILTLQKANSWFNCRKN


How the values were obtained:
Test in all cases: cell-based or functional assay
ADAMTS4 = target: T1, ADAMTS4
MMP13 [1] = target: T7, MMP13 (human, UniProt P45452 104-471, limits assumed)
ADAMTS5 [2] = target: T2, ADAMTS5
MMP7 = target: T3, MMP7
MMP3 = MMP3 (human, UniProt P08254 100-477, limits assumed)
Chain of MMP3 (P08254 100-477 limits assumed): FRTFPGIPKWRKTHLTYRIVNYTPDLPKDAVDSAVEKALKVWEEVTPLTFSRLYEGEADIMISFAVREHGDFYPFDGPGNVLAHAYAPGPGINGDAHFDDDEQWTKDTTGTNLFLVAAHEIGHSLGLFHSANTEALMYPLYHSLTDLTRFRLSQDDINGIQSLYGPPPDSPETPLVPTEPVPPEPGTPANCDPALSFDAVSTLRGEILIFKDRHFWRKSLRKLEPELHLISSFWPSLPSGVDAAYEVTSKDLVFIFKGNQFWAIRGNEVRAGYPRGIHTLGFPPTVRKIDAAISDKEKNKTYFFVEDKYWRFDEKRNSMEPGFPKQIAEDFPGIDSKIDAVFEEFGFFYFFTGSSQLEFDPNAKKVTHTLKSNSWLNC

Elastase = target: Elastase
Cathepsin G = target: T4, Cathepsin G
MMP13 [3] = target: T7, MMP13; remark: listed apart in the source
MMP9 = MMP9 (human, UniProt P14780 107-707, limits assumed)
Chain of MMP9 (P14780 107-707 limits assumed): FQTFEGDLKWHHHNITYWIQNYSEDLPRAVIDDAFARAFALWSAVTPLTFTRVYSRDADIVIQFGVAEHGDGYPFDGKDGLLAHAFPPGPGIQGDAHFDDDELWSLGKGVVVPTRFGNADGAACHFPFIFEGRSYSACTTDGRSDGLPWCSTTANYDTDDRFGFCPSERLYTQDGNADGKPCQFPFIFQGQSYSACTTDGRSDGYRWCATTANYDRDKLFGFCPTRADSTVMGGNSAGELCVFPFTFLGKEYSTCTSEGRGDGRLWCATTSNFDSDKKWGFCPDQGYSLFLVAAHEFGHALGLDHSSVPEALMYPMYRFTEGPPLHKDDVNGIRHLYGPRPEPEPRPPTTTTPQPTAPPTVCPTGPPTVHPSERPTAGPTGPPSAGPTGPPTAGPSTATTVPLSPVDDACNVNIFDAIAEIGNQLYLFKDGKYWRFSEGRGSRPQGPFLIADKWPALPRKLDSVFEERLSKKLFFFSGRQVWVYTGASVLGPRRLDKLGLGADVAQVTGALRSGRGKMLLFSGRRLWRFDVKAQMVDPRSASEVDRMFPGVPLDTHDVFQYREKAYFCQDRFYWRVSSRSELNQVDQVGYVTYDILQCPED

MMP2 = target: T5, MMP2
MMP8 = MMP8 (human, UniProt P22894 101-467, limits assumed)
Chain of MMP8 (P22894 101-467 limits assumed): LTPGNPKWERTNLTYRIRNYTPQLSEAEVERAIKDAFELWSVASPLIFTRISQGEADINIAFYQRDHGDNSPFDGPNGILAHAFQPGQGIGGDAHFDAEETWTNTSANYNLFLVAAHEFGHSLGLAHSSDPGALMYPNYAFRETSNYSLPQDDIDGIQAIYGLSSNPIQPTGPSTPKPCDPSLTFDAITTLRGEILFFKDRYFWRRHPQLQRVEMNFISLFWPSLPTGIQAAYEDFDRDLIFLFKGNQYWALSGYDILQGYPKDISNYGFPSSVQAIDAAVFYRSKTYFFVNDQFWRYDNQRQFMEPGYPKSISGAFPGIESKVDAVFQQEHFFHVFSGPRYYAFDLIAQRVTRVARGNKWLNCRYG

ADAMTS5 [4] = target: T2, ADAMTS5; remark: listed apart in the source
MMP1 = target: T6, MMP1

Row | Protease Inhibition (% of WT) (ADAMTS4) | Protease Inhibition (% of WT) (MMP13 [1]) | Protease Inhibition (% of WT) (ADAMTS5 [2]) | Protease Inhibition (% of WT) (MMP7) | Protease Inhibition (% of WT) (MMP3) | Protease Inhibition (% of WT) (Elastase) | Protease Inhibition (% of WT) (Cathepsin G) | Protease Inhibition (% of WT) (MMP13 [3]) | Protease Inhibition (% of WT) (MMP9) | Protease Inhibition (% of WT) (MMP2) | Protease Inhibition (% of WT) (MMP8) | Protease Inhibition (% of WT) (ADAMTS5 [4]) | Protease Inhibition (% of WT) (MMP1) | Binder
1 | 86 % of WT | 122 % of WT | 126 % of WT | – | – | – | – | – | – | – | – | – | – | Variant A2M, bait region SEQ ID NO 123 (other) SVSGKPQYMVLVPSLLHTETTEKGCVLLSYLNETVTVSASLESVRGNRSLFTDLEAENDVLHCVAFAVPKSSSNEEVMFLTVQVKGPTQEFKKRTTVMVKNEDSLVFVQTDKSIYKPGQTVKFRVVSMDENFHPLNELIPLVYIQDPKGNRIAQWQSFQLEGGLKQFSFPLSSEPFQGSYKVVVQKKSGGRTEHPFTVEEFVLPKFEVQVTVPKIITILEEEMNVSVCGLYTYGKPVPGHVTVSICRKYSDASDCHGEDSQAFCEKFSGQLNSHGCFYQQVKTKVFQLKRKEYEMKLHTEAQIQEEGTVVELTGRQSSEITRTITKLSFVKVDSHFRQGIPFFGQVRLVDGKGVPIPNKVIFIRGNEANYYSNATTDEHGLVQFSINTTNVMGTSLTVRVNYKDRSPCYGYQWVSEEHEEAHHTAYLVFSPSKSFVHLEPMSHELPCGHTQTVQAHYILNGGTLLGLKKLSFYYLIMAKGGIVRTGTHGLLVKQEDMKGHFSISIPVKSDIAPVARLLIYAVLPTGDVIGDSAKYDVENCLANKVDLSFSPSQSLPASHAHLRVTAAPQSVCALRAVDQSVLLMKPDAELSASSVYNLLPEKDLTGFPGPLNDQDDEDCINRHNVYINGITYTPVSSTNEKDMYSFLEDMGLKAFTNSKIRKPKMCPQLESQELGQRESESEGSELEGRGSGFKEGVEGKEEEGLGSGFFGFPIGKLRKYFPETWIWDLVVVNSAGVAEVGVTVPDTITEWKAGAFCLSEDAGLGISSTASLRAFQPFFVELTMPYSVIRGEAFTLKATVLNYLPKCIRVSVQLEASPAFLAVPVEKEQAPHCICANGRQTVSWAVTPKSLGNVNFTVSAEALESQELCGTEVPSVPEHGRKDTVIKPLLVEPEGLEKETTFNSLLCPSGGEVSEELSLKLPPNVVEESARASVSVLGDILGSAMQNTQNLLQMPYGCGEQNMVLFAPNIYVLDYLNETQQLTPEIKSKAIGYLNTGYQRQLNYKHYDGSYSTFGERYGRNQGNTWLTAFVLKTFAQARAYIFIDEAHITQALIWLSQRQKDNGCFRSSGSLLNNAIKGGVEDEVTLSAYITIALLEIPLTVTHPVVRNALFCLESAWKTAQEGDHGSHVYTKALLAYAFALAGNQDKRKEVLKSLNEEAVKKDNSVHWERPQKPKAPVGHFYEPQAPSAEVEMTSYVLLAYLTAQPAPTSEDLTSATNIVKWITKQQNAQGGFSSTQDTVVALHALSKYGAATFTRTGKAAQVTIQSSGTFSSKFQVDNNNRLLLQQVSLPELPGEYSMKVTGEGCVYLQTSLKYNILPEKEEFPFALGVQTLPQTCDEPKAHTSFQISLSVSYTGSRSASNMAIVDVKMVSGFIPLKPTVKMLERSNHVSRTEVSSNHVLIYLDKVSNQTLSLFFTVLQDVPVRDLKPAIVKVYDYYETDEFAIAEYNAPCSKDLGNADYKDDDDKGASHHHHHH
2 | – | – | – | 105 % of WT | 180 % of WT | 91 % of WT | 105 % of WT | 104 % of WT | 84 % of WT | 92 % of WT | 92 % of WT | 305 % of WT | 101 % of WT | Variant A2M, bait region SEQ ID NO 16 (other) SVSGKPQYMVLVPSLLHTETTEKGCVLLSYLNETVTVSASLESVRGNRSLFTDLEAENDVLHCVAFAVPKSSSNEEVMFLTVQVKGPTQEFKKRTTVMVKNEDSLVFVQTDKSIYKPGQTVKFRVVSMDENFHPLNELIPLVYIQDPKGNRIAQWQSFQLEGGLKQFSFPLSSEPFQGSYKVVVQKKSGGRTEHPFTVEEFVLPKFEVQVTVPKIITILEEEMNVSVCGLYTYGKPVPGHVTVSICRKYSDASDCHGEDSQAFCEKFSGQLNSHGCFYQQVKTKVFQLKRKEYEMKLHTEAQIQEEGTVVELTGRQSSEITRTITKLSFVKVDSHFRQGIPFFGQVRLVDGKGVPIPNKVIFIRGNEANYYSNATTDEHGLVQFSINTTNVMGTSLTVRVNYKDRSPCYGYQWVSEEHEEAHHTAYLVFSPSKSFVHLEPMSHELPCGHTQTVQAHYILNGGTLLGLKKLSFYYLIMAKGGIVRTGTHGLLVKQEDMKGHFSISIPVKSDIAPVARLLIYAVLPTGDVIGDSAKYDVENCLANKVDLSFSPSQSLPASHAHLRVTAAPQSVCALRAVDQSVLLMKPDAELSASSVYNLLPEKDLTGFPGPLNDQDDEDCINRHNVYINGITYTPVSSTNEKDMYSFLEDMGLKAFTNSKIRKPKMCPQLEHGPEFRGVTRYLTAIPENFYGVSELEGRGSSEDLVVQIVEEPHTKLRKYFPETWIWDLVVVNSAGVAEVGVTVPDTITEWKAGAFCLSEDAGLGISSTASLRAFQPFFVELTMPYSVIRGEAFTLKATVLNYLPKCIRVSVQLEASPAFLAVPVEKEQAPHCICANGRQTVSWAVTPKSLGNVNFTVSAEALESQELCGTEVPSVPEHGRKDTVIKPLLVEPEGLEKETTFNSLLCPSGGEVSEELSLKLPPNVVEESARASVSVLGDILGSAMQNTQNLLQMPYGCGEQNMVLFAPNIYVLDYLNETQQLTPEIKSKAIGYLNTGYQRQLNYKHYDGSYSTFGERYGRNQGNTWLTAFVLKTFAQARAYIFIDEAHITQALIWLSQRQKDNGCFRSSGSLLNNAIKGGVEDEVTLSAYITIALLEIPLTVTHPVVRNALFCLESAWKTAQEGDHGSHVYTKALLAYAFALAGNQDKRKEVLKSLNEEAVKKDNSVHWERPQKPKAPVGHFYEPQAPSAEVEMTSYVLLAYLTAQPAPTSEDLTSATNIVKWITKQQNAQGGFSSTQDTVVALHALSKYGAATFTRTGKAAQVTIQSSGTFSSKFQVDNNNRLLLQQVSLPELPGEYSMKVTGEGCVYLQTSLKYNILPEKEEFPFALGVQTLPQTCDEPKAHTSFQISLSVSYTGSRSASNMAIVDVKMVSGFIPLKPTVKMLERSNHVSRTEVSSNHVLIYLDKVSNQTLSLFFTVLQDVPVRDLKPAIVKVYDYYETDEFAIAEYNAPCSKDLGNADYKDDDDKGASHHHHHH
